Measurements: patent publication US20050123900A1

What was measured:
[1] = target: HIV-1 Env 89.6 on 293 cells (HIV-1 isolate 89.6) (UniProt Q73372); assay: cell-based or functional assay
[2] = target: HIV-1 Env BR025.9 on 293 cells (HIV-1 isolate BR025.9); assay: cell-based or functional assay
[3] = target: HIV-1 Env BR029.2 on 293 cells (HIV-1 isolate BR029.2); assay: cell-based or functional assay
[4] = target: HIV-1 Env HT593.1 on 293 cells (HIV-1 isolate HT593.1); assay: cell-based or functional assay
[5] = target: HIV-1 Env NL4-3 on 293 cells (HIV-1 isolate NL4-3); assay: cell-based or functional assay
[6] = target: HIV-1 Env RW020.5 on 293 cells (HIV-1 isolate RW020.5); assay: cell-based or functional assay
[7] = target: HIV-1 Env TH022.4 on 293 cells (HIV-1 isolate TH022.4); assay: cell-based or functional assay
[8] = target: HIV-1 Env UG037.8 on 293 cells (HIV-1 isolate UG037.8); assay: cell-based or functional assay
[9] = target: HIV-1 Env UG975.10 on 293 cells (HIV-1 isolate UG975.10); assay: cell-based or functional assay
[10] = target: HIV-1 Env US005.11 on 293 cells (HIV-1 isolate US005.11); assay: cell-based or functional assay
[11] = target: HIV-1 Env US715.6 on 293 cells (HIV-1 isolate US715.6); assay: cell-based or functional assay
[12] = target: HIV-1 Env #4-4/116 on pseudotype virus (HIV-1 isolate #4-4/116); assay: cell-based or functional assay
[13] = target: HIV-1 Env #6-4/41 on pseudotype virus (HIV-1 isolate #6-4/41); assay: cell-based or functional assay
[14] = target: HIV-1 Env #8-4/49 on pseudotype virus (HIV-1 isolate #8-4/49); assay: cell-based or functional assay
[15] = target: HIV-1 Env #9-131 on pseudotype virus (HIV-1 isolate #9-131); assay: cell-based or functional assay
[16] = target: HIV-1 Env GX-C44 on pseudotype virus (HIV-1 isolate GX-C44); assay: cell-based or functional assay
[17] = target: HIV-1 Env GX-E14 on pseudotype virus (HIV-1 isolate GX-E14); assay: cell-based or functional assay
[18] = target: HIV-1 Env MN-TCLA on pseudotype virus (HIV-1 isolate MN-TCLA) (UniProt P05877); assay: cell-based or functional assay
[19] = target: HIV-1 Env R2 on pseudotype virus (HIV-1 isolate R2); assay: cell-based or functional assay
[20] = target: HIV-1 Env TH966 on pseudotype virus (HIV-1 isolate TH966); assay: cell-based or functional assay
[21] = target: HIV-1 Env VI1273 on pseudotype virus (HIV-1 isolate VI1273); assay: cell-based or functional assay
[22] = target: HIV-1 Env VI1399 on pseudotype virus (HIV-1 isolate VI1399); assay: cell-based or functional assay
[23] = target: HIV-1 Env Z2Z6 on pseudotype virus (HIV-1 isolate Z2Z6); assay: cell-based or functional assay
[24] = target: gp120 89.6 (HIV-1 isolate 89.6) (UniProt Q73372); assay: ELISA, antigen coated directly on plate, soluble Fab titrated, Langmuir fit
[25] = target: gp120 HXB2 (HIV-1 isolate HXB2) (UniProt P04578); assay: as above
[26] = target: gp120 JR-FL (HIV-1 isolate JR-FL) (UniProt P20871); assay: as above
[27] = target: sCD4-gp120 89.6 complex (HIV-1 isolate 89.6) (UniProt Q73372); assay: ELISA, sCD4-gp120 complex coated directly on plate, soluble Fab titrated, Langmuir fit
[28] = target: sCD4-gp120 HXB2 complex (HIV-1 isolate HXB2) (UniProt P04578); assay: as above
[29] = target: sCD4-gp120 JR-FL complex (HIV-1 isolate JR-FL) (UniProt P01730); assay: as above
[30] = target: HIV-1 Env 92RW020.5 on pseudotype virus (HIV-1 isolate 92RW020.5); assay: cell-based or functional assay
[31] = target: HIV-1 Env P37 on pseudotype virus (HIV-1 isolate P37); assay: cell-based or functional assay
[32] = target: HIV-1 Env V5 on pseudotype virus (HIV-1 isolate V5); assay: cell-based or functional assay
[33] = target: HIV-1 Env VI14004 on pseudotype virus (HIV-1 isolate VI14004); assay: cell-based or functional assay
[34] = target: gp120 IIIB (HIV-1 isolate IIIB); assay: ELISA, antigen coated directly on plate, soluble Fab titrated, Langmuir fit
[35] = target: gp140 89.6 (HIV-1 isolate 89.6) (UniProt Q73372); assay: ELISA, soluble Fab titrated on Env (direct coat or D7324 capture not given)
[36] = target: gp140 BR019.10 (HIV-1 isolate BR019.10); assay: as above
[37] = target: gp140 Bal-L (HIV-1 isolate Bal-L); assay: as above
[38] = target: gp140 CM243 (HIV-1 isolate CM243); assay: as above
[39] = target: gp140 HT593.1 (HIV-1 isolate HT593.1); assay: as above
[40] = target: gp140 MW965.26 (HIV-1 isolate MW965.26); assay: as above
[41] = target: gp140 R2 (HIV-1 isolate R2); assay: as above
[42] = target: gp140 UG024.2 (HIV-1 isolate UG024.2); assay: as above
[43] = target: gp140 UG037.8 (HIV-1 isolate UG037.8); assay: as above
[44] = target: gp140 UG975-10 (HIV-1 isolate UG975-10); assay: as above
[45] = target: gp140 ZR001.3 (HIV-1 isolate ZR001.3); assay: as above
[46] = target: sCD4-gp120 IIIB complex (HIV-1 isolate IIIB) (UniProt P01730); assay: ELISA, sCD4-gp120 complex coated directly on plate, soluble Fab titrated, Langmuir fit
[47] = target: gp120 IIIB (HIV-1 isolate IIIB); assay: ELISA, soluble Fab titrated on Env (gp120 by the footnote; direct coat or D7324 capture not specified)

Substance Fab X5 has a % of fusion inhibition (syncytia count), Fab at 50 µg/ml [1] of 93%, a % of fusion inhibition (syncytia count), Fab at 50 µg/ml [2] of 71% and a % of fusion inhibition (syncytia count), Fab at 50 µg/ml [3] of 36%. For the same substance, the % of fusion inhibition (syncytia count), Fab at 50 µg/ml [4] was 27%, the % of fusion inhibition (syncytia count), Fab at 50 µg/ml [5] was 83% and the % of fusion inhibition (syncytia count), Fab at 50 µg/ml [6] was 45%. The % of fusion inhibition (syncytia count), Fab at 50 µg/ml [7] was 43%, the % of fusion inhibition (syncytia count), Fab at 50 µg/ml [8] was 34% and the % of fusion inhibition (syncytia count), Fab at 50 µg/ml [9] was 19%. For the same substance, the % of fusion inhibition (syncytia count), Fab at 50 µg/ml [10] was 72% and the % of fusion inhibition (syncytia count), Fab at 50 µg/ml [11] was 28%.
Fab m14 showed an M14 Concentration (µg/ml) of Fab, 50% neutralization endpoint, pseudovirus assay [12] greater than 100 µg/mL, an M14 Concentration (µg/ml) of Fab, 50% neutralization endpoint, pseudovirus assay [13] greater than 100 µg/mL and an M14 Concentration (µg/ml) of Fab, 50% neutralization endpoint, pseudovirus assay [14] of 35.4 µg/mL. For the same substance, the M14 Concentration (µg/ml) of Fab, 50% neutralization endpoint, pseudovirus assay [15] was 100 µg/mL, the % of fusion inhibition (syncytia count), Fab at 50 µg/ml [1] was 100% and the % of fusion inhibition (syncytia count), Fab at 50 µg/ml [2] was 71%. For the same substance, the % of fusion inhibition (syncytia count), Fab at 50 µg/ml [3] was 71%, the M14 Concentration (µg/ml) of Fab, 50% neutralization endpoint, pseudovirus assay [16] was 8.8 µg/mL and the M14 Concentration (µg/ml) of Fab, 50% neutralization endpoint, pseudovirus assay [17] was 100 µg/mL. For the same substance, the % of fusion inhibition (syncytia count), Fab at 50 µg/ml [4] was 78%, the M14 Concentration (µg/ml) of Fab, 50% neutralization endpoint, pseudovirus assay [18] was 2.24 µg/mL and the % of fusion inhibition (syncytia count), Fab at 50 µg/ml [5] was 96%. It also gave an M14 Concentration (µg/ml) of Fab, 50% neutralization endpoint, pseudovirus assay [19] of 2.24 µg/mL, a % of fusion inhibition (syncytia count), Fab at 50 µg/ml [6] of 31% and a % of fusion inhibition (syncytia count), Fab at 50 µg/ml [7] of 100%. The M14 Concentration (µg/ml) of Fab, 50% neutralization endpoint, pseudovirus assay [20] was greater than 100 µg/mL, the % of fusion inhibition (syncytia count), Fab at 50 µg/ml [8] was 100% and the % of fusion inhibition (syncytia count), Fab at 50 µg/ml [9] was 22%. It also gave a % of fusion inhibition (syncytia count), Fab at 50 µg/ml [10] of 95%, a % of fusion inhibition (syncytia count), Fab at 50 µg/ml [11] of 35% and an M14 Concentration (µg/ml) of Fab, 50% neutralization endpoint, pseudovirus assay [21] of 3.1 µg/mL. It also gave an M14 Concentration (µg/ml) of Fab, 50% neutralization endpoint, pseudovirus assay [22] greater than 100 µg/mL, an M14 Concentration (µg/ml) of Fab, 50% neutralization endpoint, pseudovirus assay [23] of 50 µg/mL and a Kd [24] of 5.4 nM. It also gave a Kd [25] of 0.3 nM, a Kd [26] of 0.9 nM and a Kd [27] of 7.3 nM. It also gave a Kd [28] of 0.4 nM and a Kd [29] of 1.2 nM.
Substance Fab m18 has an M18 Concentration (µg/ml) of Fab, 50% neutralization endpoint, pseudovirus assay [12] of 6.3 µg/mL, an M18 Concentration (µg/ml) of Fab, 50% neutralization endpoint, pseudovirus assay [13] of 100 µg/mL and an M18 Concentration (µg/ml) of Fab, 50% neutralization endpoint, pseudovirus assay [14] of 5 µg/mL. For the same substance, the M18 Concentration (µg/ml) of Fab, 50% neutralization endpoint, pseudovirus assay [15] was greater than 100 µg/mL, the % of fusion inhibition (syncytia count), Fab at 50 µg/ml [1] was 100% and the M18 Concentration (µg/ml) of Fab, 50% neutralization endpoint, pseudovirus assay [30] was 3 µg/mL. The % of fusion inhibition (syncytia count), Fab at 50 µg/ml [2] was 86%, the % of fusion inhibition (syncytia count), Fab at 50 µg/ml [3] was 86% and the M18 Concentration (µg/ml) of Fab, 50% neutralization endpoint, pseudovirus assay [16] was greater than 25 µg/mL. It also gave an M18 Concentration (µg/ml) of Fab, 50% neutralization endpoint, pseudovirus assay [17] greater than 100 µg/mL, a % of fusion inhibition (syncytia count), Fab at 50 µg/ml [4] of 39% and an M18 Concentration (µg/ml) of Fab, 50% neutralization endpoint, pseudovirus assay [18] of less than 1.6 µg/mL. The % of fusion inhibition (syncytia count), Fab at 50 µg/ml [5] was 92%, the M18 Concentration (µg/ml) of Fab, 50% neutralization endpoint, pseudovirus assay [31] was 100 µg/mL and the M18 Concentration (µg/ml) of Fab, 50% neutralization endpoint, pseudovirus assay [19] was 1.6 µg/mL. The % of fusion inhibition (syncytia count), Fab at 50 µg/ml [6] was 25%, the % of fusion inhibition (syncytia count), Fab at 50 µg/ml [7] was 93% and the M18 Concentration (µg/ml) of Fab, 50% neutralization endpoint, pseudovirus assay [20] was greater than 100 µg/mL. For the same substance, the % of fusion inhibition (syncytia count), Fab at 50 µg/ml [8] was 34%, the % of fusion inhibition (syncytia count), Fab at 50 µg/ml [9] was 56% and the % of fusion inhibition (syncytia count), Fab at 50 µg/ml [10] was 93%. The % of fusion inhibition (syncytia count), Fab at 50 µg/ml [11] was 97%, the M18 Concentration (µg/ml) of Fab, 50% neutralization endpoint, pseudovirus assay [32] was less than 2 µg/mL and the M18 Concentration (µg/ml) of Fab, 50% neutralization endpoint, pseudovirus assay [21] was 25 µg/mL. It also gave an M18 Concentration (µg/ml) of Fab, 50% neutralization endpoint, pseudovirus assay [22] greater than 100 µg/mL, an M18 Concentration (µg/ml) of Fab, 50% neutralization endpoint, pseudovirus assay [33] of less than 2 µg/mL and an M18 Concentration (µg/ml) of Fab, 50% neutralization endpoint, pseudovirus assay [23] of 25 µg/mL. The Kd [24] was 1 nM, the Kd [34] was 0.08 nM and the Kd [26] was 0.9 nM. For the same substance, the EC50 [35] was 1.17 nM, the EC50 [36] was 0.77 nM and the EC50 [37] was 0.53 nM. It also gave an EC50 [38] of 116 nM, an EC50 [39] of 0.25 nM and an EC50 [40] of 0.55 nM. For the same substance, the EC50 [41] was 0.13 nM, the EC50 [42] was 0.97 nM and the EC50 [43] was 0.83 nM. For the same substance, the EC50 [44] was 0.87 nM, the EC50 [45] was 1.07 nM and the Kd [27] was 0.9 nM. The Kd [46] was 0.09 nM, the Kd [29] was 0.7 nM and the EC50 [47] was 0.48 nM.
